# Measured values: paper PMC6926487
# Target: GST-Rac1A, active (GTPγs-bound), P34144
# Assay: pull-down (GST-Rac1A), immunoblot quantification
# Conditions: chain shown with the change, mean ± SEM, n = 3, parent: 1.9% ± 0.9% SEM
binder,measurement,value
"GFP-WASP (Dictyostelium Wiskott-Aldrich syndrome protein, wild type) I173A; F179A (protein) MGSPTISDQEKSQVAFIAGSSSDIHSTTVARLYEGRQGRWEFMAVGIVSVVSNRVDKTNYIKVFDLKANYRIIFEQEIYDTFEFQKQRDFFFAFEGDSCVYGLSFADVTEAAEFYGQLLNCKQGNIGKTAAINPNTSSTKITASTPAPKVEKKKEKKGFMSKFFSSEEKDLEASAPTNAKHESHIGWDPENGFDIKNIPPDWRKLFQSAGIKKSELKNAETAQFIVNIIGEQMVGGSAPPPTQPGRSAPPAPPSSNQPGRSAPPPPPSVGKSAPPPPPPSHKTPAAPPSGGGAPPPPPPPPPPSSGPPPPPPPMASAPPSSGGGGASGGGRNDLLASIRSGASLKAVDKTNPLPDIQSLGNEGSRSLADTLAAAMANRRGGMREDDEEDDDDDDEWSDY",response (% binding to GTPγS-loaded Rac1A),0.1
